In the Immune Epitope Database (IEDB):

Legend:
[1] = target: HLA-A*24:02; assay: IEDB peptide-MHC binding, purified MHC/competitive/fluorescence; filed as Kd, often an IC50 or EC50 that approximates it; ≥ and ≤ were set here for values at or beyond the usual limits of such assays
[2] = target: HLA-A*02:16; assay: as above
[3] = target: HLA-B*07:02; assay: IEDB peptide-MHC binding, purified MHC/direct/fluorescence; filed as Kd, often an IC50 or EC50 that approximates it; ≥ and ≤ were set here for values at or beyond the usual limits of such assays
[4] = target: HLA-C*03:03; assay: as above; details: source organism: Yersinia frederiksenii ATCC 33641
[5] = target: HLA-C*12:03; assay: as above
[6] = target: HLA-C*15:02; assay: as above
[7] = target: HLA-B*27:05; assay: IEDB peptide-MHC binding, purified MHC/competitive/fluorescence; filed as Kd, often an IC50 or EC50 that approximates it; ≥ and ≤ were set here for values at or beyond the usual limits of such assays
[8] = target: HLA-A*02:01; assay: as above
[9] = target: HLA-A*26:02; assay: as above; details: source organism: Vaccinia virus WR
[10] = target: HLA-B*15:17; assay: as above
[11] = target: HLA-A*68:02; assay: as above
[12] = target: HLA-A*11:01; assay: as above; details: source organism: Vaccinia virus WR
[13] = target: HLA-B*35:01; assay: as above; details: source organism: Vaccinia virus WR
[14] = target: HLA-A*30:01; assay: as above; details: source organism: Vaccinia virus WR
[15] = target: HLA-A*26:01; assay: as above
[16] = target: HLA-B*48:01; assay: IEDB peptide-MHC binding, purified MHC/direct/fluorescence; filed as Kd, often an IC50 or EC50 that approximates it; ≥ and ≤ were set here for values at or beyond the usual limits of such assays; details: source organism: Camelpox virus M-96
[17] = target: HLA-B*58:01; assay: as above; details: source organism: Camelpox virus M-96
[18] = target: HLA-A*01:01; assay: as above; details: source organism: Camelpox virus M-96
[19] = target: HLA-B*57:01; assay: as above; details: source organism: Camelpox virus M-96
[20] = target: HLA-B*15:01; assay: as above; details: source organism: Camelpox virus M-96
[21] = target: HLA-B*46:01; assay: as above; details: source organism: Camelpox virus M-96
[22] = target: HLA-A*31:01; assay: as above; details: source organism: Camelpox virus M-96
[23] = target: HLA-B*27:05; assay: as above; details: source organism: Camelpox virus M-96
[24] = target: HLA-C*14:02; assay: as above; details: source organism: Entamoeba histolytica HM-1:IMSS
[25] = target: HLA-B*08:01; assay: as above; details: source organism: Giardia lamblia ATCC 50803
[26] = target: HLA-B*08:02; assay: as above
[27] = target: HLA-B*18:01; assay: IEDB peptide-MHC binding, purified MHC/competitive/fluorescence; filed as Kd, often an IC50 or EC50 that approximates it; ≥ and ≤ were set here for values at or beyond the usual limits of such assays
[28] = target: HLA-B*27:03; assay: as above
[29] = target: HLA-A*02:12; assay: as above
[30] = target: HLA-A*02:19; assay: as above
[31] = target: HLA-A*24:03; assay: as above
[32] = target: HLA-A*69:01; assay: as above
[33] = target: HLA-B*51:01; assay: as above
[34] = target: HLA-A*02:03; assay: as above
[35] = target: HLA-B*39:01; assay: as above
[36] = target: HLA-B*57:01; assay: as above
[37] = target: HLA-B*15:01; assay: as above
[38] = target: HLA-B*46:01; assay: as above
[39] = target: HLA-A*02:11; assay: as above
[40] = target: HLA-A*31:01; assay: as above
[41] = target: HLA-A*29:02; assay: as above; details: source organism: Brucella abortus S19
[42] = target: HLA-A*03:01; assay: as above; details: source organism: Brucella abortus S19
[43] = source organism: Yersinia frederiksenii ATCC 33641
[44] = source organism: Vaccinia virus WR
[45] = source organism: Entamoeba histolytica HM-1:IMSS
[46] = source organism: Vibrio parahaemolyticus AQ3810
[47] = source organism: Influenza A virus (A/Gf/HK/SSP607/2003(H9N2))
[48] = source organism: Brucella abortus S19

Sequence PYMSALFWI has a Kd ([1]; source organism: Cryptosporidium parvum Iowa II) of 0.0008 µM.
In the case of RLTGREGAV, the Kd ([2]; source organism: Pseudomonas aeruginosa PACS2) is reported as 0.345 µM and the Kd ([3]; source organism: Pseudomonas aeruginosa) is reported as 7.02 µM.
With LAIEATLAF the Kd [4] was ≥ 20 µM, the Kd [5, 43] was 1.04 µM and the Kd [6, 43] was ≥ 20 µM.
For KQWRGDKML, the Kd ([7]; source organism: Bacillus thuringiensis str. Al Hakam) was 0.0852 µM.
In the case of FVFEATKLY, the Kd [8, 44] is reported as ≥ 20 µM, the Kd [9] is reported as 0.0668 µM and the Kd [10, 44] is reported as 0.12 µM. For the same sequence, the Kd [11, 44] was 0.0496 µM, the Kd [12] was 2.08 µM and the Kd [13] was 0.0057 µM. The Kd [14] was ≥ 20 µM, the Kd [15, 44] was 0.0167 µM and the Kd [5, 44] was ≤ 0.001 µM. For the same sequence, the Kd ([3]; source organism: Camelpox virus M-96) was ≥ 20 µM, the Kd [16] was ≥ 20 µM and the Kd [17] was ≥ 20 µM. For the same sequence, the Kd [18] was ≥ 20 µM, the Kd [19] was ≥ 20 µM and the Kd [20] was 0.0177 µM. For the same sequence, the Kd [21] was ≥ 20 µM, the Kd [22] was ≥ 20 µM and the Kd [23] was ≥ 20 µM.
For SWLYNYFVF, the Kd [1, 45] was 0.0003 µM, the Kd [6, 45] was ≥ 20 µM and the Kd [24] was 0.438 µM.
YSKIRGAAL showed a Kd [25] of 0.027 µM and a Kd ([26]; source organism: Giardia lamblia ATCC 50803) of 0.445 µM.
KYNGIITDTI showed a Kd ([1]; source organism: Influenza A virus (A/goose/Guangdong/1/1996(H5N1))) of 0.0002 µM.
For GKLNRLIGK, the Kd ([7]; source organism: Influenza A virus (A/Hong Kong/CUHK13527/2003(H3N2))) was 1.84 µM.
With KCRLRMDKL the Kd ([26]; source organism: Dengue virus 2 Thailand/16681/84) was ≥ 20 µM.
For HFIYHKREK, the Kd [8, 46] was ≥ 20 µM, the Kd [27, 46] was ≥ 20 µM and the Kd [10, 46] was ≥ 20 µM. For the same sequence, the Kd [28, 46] was ≥ 20 µM, the Kd [29, 46] was ≥ 20 µM and the Kd [11, 46] was ≥ 20 µM. For the same sequence, the Kd [30, 46] was ≥ 20 µM, the Kd [31, 46] was ≥ 20 µM and the Kd [32, 46] was ≥ 20 µM. For the same sequence, the Kd [33, 46] was ≥ 20 µM, the Kd [34, 46] was ≥ 20 µM and the Kd [35, 46] was ≥ 20 µM. The Kd [2, 46] was ≥ 20 µM, the Kd [36, 46] was ≥ 20 µM and the Kd [37, 46] was ≥ 20 µM. For the same sequence, the Kd [15, 46] was ≥ 20 µM, the Kd [38, 46] was ≥ 20 µM and the Kd [39, 46] was ≥ 20 µM. It also gave a Kd [40, 46] of 0.0188 µM.
In the case of RYSGFVRTLF, the Kd ([1]; source organism: Influenza A virus (A/turkey/Ohio/313053/2004(H3N2))) is reported as ≤ 0.0001 µM.
For AMITYITRK, the Kd [8, 47] was ≥ 20 µM, the Kd [27, 47] was ≥ 20 µM and the Kd [10, 47] was ≥ 20 µM. The Kd [28, 47] was ≥ 20 µM, the Kd [29, 47] was ≥ 20 µM and the Kd [11, 47] was ≥ 20 µM. The Kd [30, 47] was ≥ 20 µM, the Kd [31, 47] was ≥ 20 µM and the Kd [32, 47] was ≥ 20 µM. The Kd [33, 47] was ≥ 20 µM, the Kd [34, 47] was ≥ 20 µM and the Kd [35, 47] was ≥ 20 µM. For the same sequence, the Kd [2, 47] was ≥ 20 µM, the Kd [36, 47] was ≥ 20 µM and the Kd [37, 47] was ≥ 20 µM. For the same sequence, the Kd [15, 47] was ≥ 20 µM, the Kd [38, 47] was ≥ 20 µM and the Kd [40, 47] was 0.158 µM.
With KQWIVAGAI the Kd [8, 48] was 0.0017 µM, the Kd [27, 48] was ≥ 20 µM and the Kd [10, 48] was ≥ 20 µM. For the same sequence, the Kd [28, 48] was ≥ 20 µM, the Kd [29, 48] was ≥ 20 µM and the Kd [41] was ≥ 20 µM. The Kd [11, 48] was ≥ 20 µM, the Kd [30, 48] was ≥ 20 µM and the Kd [31, 48] was ≥ 20 µM. For the same sequence, the Kd [32, 48] was ≥ 20 µM, the Kd [33, 48] was ≥ 20 µM and the Kd [34, 48] was ≥ 20 µM. The Kd [35, 48] was ≥ 20 µM, the Kd [36, 48] was ≥ 20 µM and the Kd [37, 48] was ≥ 20 µM. The Kd [15, 48] was ≥ 20 µM, the Kd [38, 48] was ≥ 20 µM and the Kd [39, 48] was ≤ 0.0001 µM. The Kd [42] was ≥ 20 µM.
